Experimental findings from patent EP4692351A1, “ANTI-CD25 ANTIBODY AND ANTI-CD25 ANTIBODY-DRUG CONJUGATE” (priority 2023, dated 2024) are described below.

The target in assay [1] is T1, mouse CD25 (mouse, UniProt P01590 22-268).
T1 construct: Expressed on transiently transfected CHO-K1 cells in the Cell-ELISA; Endogenous on CTLL-2 cells and mouse pan T cells in the functional assays; also called mCD25; pCMV3-mCD25 (expression vector)
T1 sequence: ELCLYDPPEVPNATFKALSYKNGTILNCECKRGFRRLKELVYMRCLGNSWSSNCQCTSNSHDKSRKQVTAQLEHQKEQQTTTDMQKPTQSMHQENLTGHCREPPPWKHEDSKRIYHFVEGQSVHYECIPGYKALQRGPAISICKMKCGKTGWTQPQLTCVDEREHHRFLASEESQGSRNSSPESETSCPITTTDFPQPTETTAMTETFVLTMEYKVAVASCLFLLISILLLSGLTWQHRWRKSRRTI
Kind of assay: cell-based or functional assay.

Assay [2] concerns the target T2, human CD25 (human, UniProt P01589 22-272).
T2 construct: Expressed on transiently transfected CHO-K1 cells in the Cell-ELISA; Endogenous on human T cells, PBMC, Karpas-299 and EoL-1 in the functional assays; also called hCD25; IL-2 receptor alpha chain
T2 sequence: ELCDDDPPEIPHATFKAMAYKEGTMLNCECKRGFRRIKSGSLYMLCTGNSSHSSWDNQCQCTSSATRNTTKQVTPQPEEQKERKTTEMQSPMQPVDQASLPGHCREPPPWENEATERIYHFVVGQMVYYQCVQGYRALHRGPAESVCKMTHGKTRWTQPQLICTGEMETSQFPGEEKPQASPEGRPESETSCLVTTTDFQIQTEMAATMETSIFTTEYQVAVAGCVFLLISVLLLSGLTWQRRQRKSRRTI
Briefly: cell-based or functional assay.

Assay [3] concerns the target T3, cynomolgus monkey CD25 (cynomolgus monkey, UniProt Q5MNY4 22-272 (rhesus entry)).
T3 construct: Expressed on transiently transfected CHO-K1 cells; also called cCD25; pCI-cCD25 (expression vector)
T3 chain: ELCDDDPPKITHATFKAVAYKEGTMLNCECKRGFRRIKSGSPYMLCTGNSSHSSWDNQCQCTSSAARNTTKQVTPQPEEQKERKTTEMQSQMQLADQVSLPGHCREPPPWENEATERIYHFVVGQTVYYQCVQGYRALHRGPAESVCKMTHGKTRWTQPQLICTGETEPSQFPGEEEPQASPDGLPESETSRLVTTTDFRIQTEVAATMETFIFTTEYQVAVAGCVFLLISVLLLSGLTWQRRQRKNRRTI
Kind of assay: Cell-ELISA on transfected CHO-K1 cells, anti-rat IgG-HRP, A450. Background: An ELISA detects its analyte on a solid surface through an enzyme-linked reagent.

Assay [4] addresses T2, human CD25. The description is as above.
The target of assay [5] is T3, cynomolgus monkey CD25. Kind of assay: Cell-ELISA on transfected CHO-K1 cells, anti-human IgG-HRP, A450.
The target in assay [6] is T2, human CD25. The description is as above.
Assay [7] deals with T4, CD25 antigen used as analyte in the Biacore measurement (Homo sapiens (Human), UniProt P01589 22-213, limits assumed).
T4 construct: also called the antigen
T4 sequence: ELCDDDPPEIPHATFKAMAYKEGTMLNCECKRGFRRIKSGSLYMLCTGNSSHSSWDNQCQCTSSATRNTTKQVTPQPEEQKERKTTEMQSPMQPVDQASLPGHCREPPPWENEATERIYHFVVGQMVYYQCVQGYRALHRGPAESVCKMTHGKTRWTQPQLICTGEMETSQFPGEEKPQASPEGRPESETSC
Kind of assay: SPR, Biacore T200, antibody captured on anti-human IgG (Fc) on CM5, antigen as analyte, 1:1 binding model.

The target in assay [8] is T3, cynomolgus monkey CD25. Briefly: Cell-ELISA on transfected CHO-K1 cells, anti-human IgG-HRP, A450; 20 to 0.001 µg/mL.
The target in assay [9] is T1, mouse CD25. Briefly: Cell-ELISA on transfected CHO-K1 cells, anti-human IgG-HRP, A450.
Assay [10] deals with T3, cynomolgus monkey CD25. Briefly: Cell-ELISA on transfected CHO-K1 cells, anti-human IgG-HRP, A450; 80 to 0.001 µg/mL.
Assay [11] concerns the target T3, cynomolgus monkey CD25. Briefly: Cell-ELISA on transfected CHO-K1 cells, anti-rat IgG-HRP, A450; 0.02 to 10 µg/mL.
The target in assay [12] is T1, mouse CD25. Kind of assay: Cell-ELISA on transfected CHO-K1 cells, anti-rat IgG-HRP, A450.

As to PC61_hIgG1LALA (antibody), the amount of pSTAT5 in mouse CTLL-2 cells with IL-2 (AlphaLISA), % of rat IgG2a control group; antibody solution 20 µg/mL with mouse CD25 [1] is 48%.

In the assay with human CD25 [2], basiliximab (antibody) showed an amount of pSTAT5 in human PBMC with IL-2 (AlphaLISA), % of hIgG1 control group of 0.01%; an amount of pSTAT5 in human PBMC with IL-2 (AlphaLISA), % of human IgG1 control group of 1.2%; an amount of pSTAT5 in human PBMC with IL-2 (AlphaLISA), % of rat IgG2a control group; antibody 20 µg/mL of 1%.

In the assay with mouse CD25 [1], “Purified NA/LE Rat Anti-Mouse CD25 (PC61 antibody)” displayed a cell survival rate of mouse pan T cells with Fab-ZAP rat (saporin), % of control antibody; 60 ng/mL of 59%; a cell survival rate of mouse pan T cells with Fab-ZAP rat (saporin), % of control antibody; 300 ng/mL of 39%; a cell survival rate of mouse pan T cells with Fab-ZAP rat (saporin), % of control antibody; 1500 ng/mL of 31%; a cell survival rate of mouse pan T cells with Fab-ZAP rat (saporin), % of control antibody; 7500 ng/mL of 29%.

The molecule 7G7B6 (antibody) had an amount of pSTAT5 in human PBMC with IL-2 (AlphaLISA), % of rat IgG2a control group; antibody 20 µg/mL with human CD25 [2] of 103%.

B1: MAb2 antibody (antibody, V domains shown)
VH: QVKLLQSGAALEKPGASVKMSCKASGYTFTDYWVIWVKQSHGKSLEWIGEIYPNSGATNFNAKFKGKATLTVDKSTSTAYMELSRLTSEDSAIYYCTTYDFDYWGQGVMVTVSS
VL: DVVLTQTPPTLSATIGQSVSISCRSSQSLSHTNGNTYLYWLLQRPGQPPQLLIYFVSRLESGVPNRFSGSGSGTDFTLKISGVEAEDLGLYYCVQSTHVPNTFGAGTKLELKR
notes: Rat monoclonal anti-mouse CD25 antibody from a hybridoma
Regarding B1, the binding result in the assay with cynomolgus monkey CD25 [3] and in the assay with human CD25 [4] was “no binding (tested: up to 10 µg/mL)” in each case.

B2: cMAb2_hIgG1LALA antibody (antibody, V domains shown)
VH: QVKLLQSGAALEKPGASVKMSCKASGYTFTDYWVIWVKQSHGKSLEWIGEIYPNSGATNFNAKFKGKATLTVDKSTSTAYMELSRLTSEDSAIYYCTTYDFDYWGQGVMVTVSS
VL: DVVLTQTPPTLSATIGQSVSISCRSSQSLSHTNGNTYLYWLLQRPGQPPQLLIYFVSRLESGVPNRFSGSGSGTDFTLKISGVEAEDLGLYYCVQSTHVPNTFGAGTKLELKR
notes: 21-239 is used here; also called human IgG1LALA chimeric MAb2
As for B2, the binding result in the assay with cynomolgus monkey CD25 [5] and with human CD25 [6] was “no binding (tested: 80 to 0.001 µg/mL)” each time.

B3: hMAb1A antibody (antibody, human IgG1, kappa, V domains shown)
VH: EVQLVESGGGLVQPGGSLRLSCAASGFTFNNYYMVWVRQAPGKGLEWVAYISTGGGTTYYRESVKGRFTISRDNSKSTLYLQMNSLRAEDTAVYYCTTSVYFSDGSSHYDGEWFAYWGQGTLVTVSS
VL: DIVMTQSPDSLAVSLGERATINCKASESVSTRMHWYQQKPGQPPKLLIYKASNLASGVPARFSGSGSGTDFTLTISSLQAEDVAVYYCQQSWNGWAFGQGTKVEIKR
notes: Humanized MAb1, human IgG1 / kappa; also called humanized antibody hMAb1A; hMAb1 (in places)
Usually Kd stands for the concentration at which binding is half-saturated. B3 yielded a Kd in [7] of 2.9 nM. The binding result was “binds” with cynomolgus monkey CD25 [8] and “no binding (tested: 20 to 0.001 µg/mL)” in the assay with mouse CD25 [9].

B4: cMAb1_hIgG1LALA antibody (antibody, V domains shown)
VH: EVQLVESGGGLVQPGRSLKLSCAASGFTFNNYYMVWVRQAPTKGLEWVAYISTGGGTTYYRESVKGRFTISRDNAKSTLYLQMDSLRSEDTATYYCTTSVYFSDGSSHYDGEWFAYWGQGTLVTVSS
VL: DTVLTQSPALAVSPGERVTISCKASESVSTRMHWYQQKPGQQPKLLIYKASNLASGVPARFSGSGSGTDFTLTIDPVEADDTATYFCQQSWNGWAFGGGTKLELKR
notes: Chimeric: rat MAb1 variable regions, human IgG1 LALA heavy constant region, human kappa constant region; also called human IgG1LALA chimeric MAb1
Take B4: the figures for the binding result with cynomolgus monkey CD25 [10] and in the assay with mouse CD25 [9] were “binds” and “no binding (tested: 80 to 0.001 µg/mL)”, respectively.

B5: hMAb1B antibody (antibody, human IgG1, kappa, V domains shown)
VH: EVQLVESGGGLVQPGGSLRLSCAASGFTFNNYYMVWVRQAPGKGLEWVAYISTGGGTTYYADSVKGRFTISRDNSKSTLYLQMNSLRAEDTAVYYCTTSVYFSDGSSHYDGEWFAYWGQGTLVTVSS
VL: EIVLTQSPGTLSLSPGERATLSCKASESVSTRMHWYQQKPGQAPRLLIYKASNLASGVPARFSGSGSGTDFTLTISRLEPEDFAVYFCQQSWNGWAFGQGTKVEIKR
notes: Humanized MAb1, human IgG1 / kappa; also called humanized antibody hMAb1B
With B5, the Kd in assay [7] worked out at 5.7 nM. Further, the binding result with cynomolgus monkey CD25 [8] is reported as “binds”.

B6: MAb1 antibody (antibody, V domains shown)
VH: EVQLVESGGGLVQPGRSLKLSCAASGFTFNNYYMVWVRQAPTKGLEWVAYISTGGGTTYYRESVKGRFTISRDNAKSTLYLQMDSLRSEDTATYYCTTSVYFSDGSSHYDGEWFAYWGQGTLVTVSS
VL: DTVLTQSPALAVSPGERVTISCKASESVSTRMHWYQQKPGQQPKLLIYKASNLASGVPARFSGSGSGTDFTLTIDPVEADDTATYFCQQSWNGWAFGGGTKLELKR
notes: Rat monoclonal antibody from a hybridoma
On to B6, for which the binding result with cynomolgus monkey CD25 [11] is reported as “binds”; in the assay with mouse CD25 [12], “no binding (tested: up to 10 µg/mL)”.
